In FireProtDB (doi:10.1093/protein/gzu024):

Settings: Homo sapiens; pH 7.4; 23 °C; GdnSCN; fluorescence; Potassium phosphate buffer; NaCl; transition: 2; reversible: yes; structure 1TEN

Substance	denaturant m value [kcal/mol/M]	denaturant midpoint (higher = more stable) [M]	unfolding free energy [kcal/mol]
Tenascin, P24821 T888C E870C I833C S875C	4.17	1.79	7.44

Same assay, conditions: Homo sapiens; pH 7.4; Thermal; DSC; Potassium phosphate buffer; NaCl; transition: 2; reversible: yes; structure 1TEN

Substance	Tm [°C]	change of melting temperature, mutant - wild type (higher = more stable) [°C]
Tenascin, P24821 D850K	63.7	5
Tenascin, P24821 E887I T890K	74.9	16.2
Tenascin, P24821 E887I T890K D850K I833F	82.6	23.9
Tenascin, P24821 A885V	59.8	1.1
Tenascin, P24821 E887I	69.9	11.2
Tenascin, P24821 V811C I821C	50.6	
Tenascin, P24821 T888C E870C I833C S875C	80.6	
Tenascin, P24821 T890K	63.9	5.2
Tenascin, P24821 I833F	61	2.3
Tenascin, P24821 E887I T890K D850K	80.5	21.8
Tenascin, P24821 L820K	56.7	-2
Tenascin, P24821 Q808K	59.9	1.2
